± gives the standard deviation.
Assay: protein stability index of a GFP-peptide fusion (GPS, HEK-293T) (PSI 1-6); higher = more stable
[1] = treatment: DMSO, c terminus: a fixed tail appended
[2] = treatment: MLN4924 1 uM, 8 h, c terminus: a fixed tail appended
[3] = treatment: DMSO, c terminus: native
[4] = treatment: MLN4924 1 uM, 8 h, c terminus: native
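Also: 24-mer peptide tiles fused after GFP, lentivirally expressed, FACS-sorted into six equal bins by GFP/DsRed ratio, decoded by Illumina sequencing, PSI is the read-weighted mean bin number.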

| Sequence | protein stability index [1] | protein stability index [2] | protein stability index [3] | protein stability index [4] |
| --- | --- | --- | --- | --- |
| NNFDNLDFDLDLVPWESDIWDINN [ATF6] | 3.2 ± 0.21 | 3.46 ± 0.11 |  |  |
| NQAPSGPVASSGEFFGSASQPAVE [CLINT1] | 5.16 ± 0.24 | 5.24 ± 0.43 |  |  |
| NRGNSAGGLQHRVTAKTAPDVLRT [PTPRD] | 3.98 ± 0.47 | 3.81 ± 0.31 |  |  |
| NRILAERIAKEIQVIPLQRDDED [IMPA1] |  |  | 3.47 ± 0.1 | 3.65 ± 0.12 |
| NSAHHCVVEVENFLFVLGGEDQWN [KLHL14] | 2.12 ± 0.27 | 2.07 ± 0.3 |  |  |
| NSPLHIAALNNHPDIMNLLIKSGA [FEM1C] | 2.54 ± 0.1 | 2.78 ± 0.12 |  |  |
| NVNRTTANNDHTVLSLACAGGHLA [ANKRD17] | 3.57 ± 0.3 | 3.7 ± 0.36 |  |  |
| NWLGRPSKVLSLQDLCCRTIVSCT [RAB40A] | 2.74 ± 0.08 | 2.88 ± 0.44 |  |  |
| NWLHRRLAGQFLEELRKFSSLCYK [MOG] | 2.5 ± 0.15 | 2.57 ± 0.27 |  |  |
| PASAPGEPRQRRLLLLDLLALYTP [ANKRD9] | 2.25 ± 0.071 | 2.02 ± 0.48 |  |  |
| PCGPNMSEVSCKKRDDYLEWPEYF [DCTD] | 3.56 ± 0.23 | 3.6 ± 0.26 |  |  |
| PCSPDSSSVCVQGRCIHAGCDRII [ADAMTS4] | 3.84 ± 0.58 | 3.67 ± 0.25 |  |  |
| PCVAESPTVHVEVHQRGSSTAKKE [TRIP13] | 5.42 ± 0.39 | 5.35 ± 0.087 |  |  |
| PDFNPEKHGSLNRYHNSHPLRERA [YJU2B] | 4.36 ± 0.21 | 4.37 ± 0.29 |  |  |
| PDKKKRPRRSLSISKNKKKASNSI [FAN1] | 4.56 ± 0.2 | 4.76 ± 0.068 |  |  |
| PDMETKLLFMTSRVRFGQQKRYQD [INTS3] | 2.92 ± 0.24 | 3.09 ± 0.32 |  |  |
| PDQAYDFLLKFLLVGDRDVGKSEI [RAB40A] | 2.46 ± 0.39 | 2.35 ± 0.3 |  |  |
| PEHGDRVAELFCRRCRRCVCALCP [TRIM14] | 3.29 ± 0.55 | 3.5 ± 0.1 |  |  |
| PELTPEEEQATKQFLEEINKWTVQ [PTPN9] | 5.01 ± 0.23 | 4.86 ± 0.12 |  |  |
| PEMNGNGAVAPMDFTTAAEDQPIN [NOL4L] | 5.35 ± 0.26 | 5.47 ± 0.15 |  |  |
| PEYTYGISNIDTTIEGTSDDLTVV [MFF] | 4.61 ± 0.15 | 4.56 ± 0.078 |  |  |
| PGGLVGSADVVSPSGHSDAQTLAM [PPFIA4] | 4.57 ± 0.22 | 4.43 ± 0.93 |  |  |
| PGKINCLRNCKTYQARKPLWFYNT [RHOBTB3] | 2.59 ± 0.41 | 2.76 ± 0.47 |  |  |

| Sequence | protein stability index [1] | protein stability index [2] | protein stability index [3] | protein stability index [4] |
| --- | --- | --- | --- | --- |
| PHRVLETRGHAISILFGFWTSFIC [SMIM2] | 2.46 ± 0.41 | 2.32 ± 0.18 |  |  |
| PIIYFNDYWNLQKDYYPINESLAS [CLPTM1] | 2.71 ± 0.85 | 2.06 ± 0.2 |  |  |
| PILQEGMDEEKLKQLNCVEISALN [DLC1] | 5.08 ± 0.15 | 4.87 ± 0.15 |  |  |
| PILSRSTSTGSAASSGSNSSASSE [SPRY1] | 5.42 ± 0.22 | 5.44 ± 0.19 |  |  |
| PKPEPPQLVLAYDYSREVNTTEEL [FEM1A] | 5.03 ± 0.19 | 4.94 ± 0.31 |  |  |
| PKTNEDFEFLYNALEFWRQEELTR [IQUB] | 2.63 ± 0.31 | 2.23 ± 0.43 |  |  |
| PLDAGEYCVPRGNRRRFRVRQPIL [BEX1] | 3.47 ± 0.42 | 3.63 ± 0.25 |  |  |
| PLGAGNLGPELIKESNANPIFMRK [DPCD] | 4.34 ± 0.27 | 4.54 ± 0.23 |  |  |
| PLLPPAMGTEPAPSAPEALHSLPG [TBX6] | 5.07 ± 0.074 | 5.06 ± 0.16 |  |  |
| PLWPGKSDVDQLYLIIRTLGKLIP [CDKL4] | 3.04 ± 0.39 | 2.34 ± 0.61 |  |  |
| PNEAMVVSGFCRSPPVMVAGGRVF [FLOT1] | 2.2 ± 0.2 | 2.42 ± 0.26 |  |  |
| PNILFYASTVLKSVGFQSNEAASL [SLC2A12] | 2.25 ± 0.33 | 2.38 ± 0.15 |  |  |
| PPRTIKRTRRRLSRNRDPGRLILS [PWWP2B] | 4.37 ± 0.27 | 4.52 ± 0.35 |  |  |
| PPSALDQLSRLNITYPMLFKLTNK [UFD1] | 2.48 ± 0.27 | 2.96 ± 0.095 |  |  |
| PPTINGIKGLQRKERLKPAHIHLQ [KRT34] | 3.34 ± 0.15 | 3.59 ± 0.46 |  |  |
| PPVTDLGELRRRPGDMKTKMELLI [CPOX] | 3.2 ± 0.36 | 3.03 ± 0.3 |  |  |
| PRPRPVSLSLRLPHQPVTAITRVS [SMTNL2] | 3.42 ± 0.24 | 3.58 ± 0.27 |  |  |
| PRRCHSAPPQGSCGDELPWTLQRR [PLEKHN1] | 4.79 ± 0.15 | 4.7 ± 0.23 |  |  |
| PRRVCVGGKRRRDDISVDSLDFTK [PPP2R2C] | 3.79 ± 0.16 | 3.9 ± 0.38 |  |  |
| PRSHFTTPAPMSSAWKTVACGGTR [MYBL2] | 2.77 ± 0.32 | 2.84 ± 0.17 |  |  |
| PRTNEWTYVAKMSEPHYGHAGTVY [KLHL13] | 2.44 ± 0.21 | 2.61 ± 0.24 |  |  |
| PSPEPAGRRAALYVHWPYCEKRCS [RSAD1] | 2.78 ± 0.26 | 3.02 ± 0.41 |  |  |
| PTLAKFSPYLGQMINLRRLLLSHI [PRAME] | 2.33 ± 0.42 | 2.15 ± 0.11 |  |  |

| Sequence | protein stability index [1] | protein stability index [2] | protein stability index [3] | protein stability index [4] |
| --- | --- | --- | --- | --- |
| PTLWTEQVKSRQNKTNKNSVSSCD [SMOC2] | 4.81 ± 0.28 | 4.84 ± 0.12 |  |  |
| PTSPVQGTTPQISPSTLIGSLRTL [HDAC6] | 3.77 ± 0.22 | 3.79 ± 0.26 |  |  |
| PVAMRVAKLAINQGMEVDLVTGLA [AUH] | 2.65 ± 0.29 | 2.92 ± 0.5 |  |  |
| PVENIPEIILYWKHSTIFDVGENL [SLC25A25] | 2.37 ± 0.41 | 2.02 ± 0.44 |  |  |
| PVESHIQKNKKILKSAKDLPPDAL [KMT2E] | 4.86 ± 0.24 | 4.71 ± 0.44 |  |  |
| PVSGKAVFMEFGPPNQQMSPSPMS [DLX1] | 3.5 ± 0.26 | 3.55 ± 0.41 |  |  |
| PYARIQQSRRQCHAEEDQSQVPEA [SMIM2] | 5.3 ± 0.19 | 5.19 ± 0.14 |  |  |
| QALEQFAAAAAHSTPVRREVTDKE [EPB41L3] | 5.02 ± 0.22 | 4.89 ± 0.41 |  |  |
| QDDSKPTQRQFTILNFNDLMSSAV [AASDHPPT] | 2.86 ± 0.31 | 2.97 ± 0.28 |  |  |
| QEAPLQDDSCLNNDIPHSIPLEQG [FAN1] | 5.25 ± 0.34 | 5.27 ± 0.17 |  |  |
| QERSRVLNQVADLLEQSLEEFAQA [ALDH8A1] | 3.94 ± 0.28 | 4.26 ± 0.19 |  |  |
| QFHALQSKLEERFGPDSKSSALAC [NCF4] | 3.5 ± 0.28 | 3.6 ± 0.54 |  |  |
| QFYGYLSQQQNMMQDYVRTGTYQR [CARM1] | 2.47 ± 0.086 | 2.72 ± 0.22 |  |  |
| QGDSADETTAHKTEEENSDSDSD [CMTM3] |  |  | 5.6 ± 0.2 | 5.7 ± 0.23 |
| QHVPEELDLSSSSQMSPLSLYGEN [ATF6] | 4.97 ± 0.19 | 5 ± 0.18 |  |  |
| QICAQVSFFFPPVNLPISFFRKLL [NLN] | 2.76 ± 0.039 | 3.45 ± 0.17 |  |  |
| QIGCKLPDDYRCSYRIHNGQKLVV [FBXO3] | 2.06 ± 0.26 | 2.18 ± 0.24 |  |  |
| QIKCIELKSELGRKWHKASNYIFV [P2RY14] | 2.72 ± 0.93 | 2.67 ± 0.47 |  |  |
| QINDGMGGDGDDMEIFMEEMREIR [BEX3] | 4.81 ± 0.17 | 4.75 ± 0.28 |  |  |
| QKLDAFLQPLSKPLSSQPQAIVTE [MLH1] | 4.17 ± 0.3 | 4.21 ± 0.21 |  |  |
| QKLREESAARVVLTSLLACLPAGP [DUSP5] | 2.15 ± 0.26 | 2.06 ± 0.13 |  |  |
| QKQRLREILEQQQQERNDTNFHGV [ZNF277] | 4.53 ± 0.3 | 4.59 ± 0.23 |  |  |
| QLAQLRCEMEQQSQEYQILLDVKT [KRT16] | 3.34 ± 0.076 | 3.55 ± 0.28 |  |  |

| Sequence | protein stability index [1] | protein stability index [2] | protein stability index [3] | protein stability index [4] |
| --- | --- | --- | --- | --- |
| QLKWASWELHSLRHCDDDGRTENG [ZNF24] | 3.83 ± 0.31 | 4.04 ± 0.21 |  |  |
| QLLKNNEKLITWLNKELNENQLVR [SASS6] | 1.88 ± 0.62 | 2.08 ± 0.38 |  |  |
| QLSPNLDLDPLELIALANRFCLPH [RHOBTB1] | 2.27 ± 0.11 | 2.44 ± 0.11 |  |  |
| QLVEMTGLSPRVIRVWFQNKRCKD [ISL2] | 2.47 ± 0.4 | 2.95 ± 0.43 |  |  |
| QNPAGELEGFQAQGHPPSLFPPKA [ATE1] | 4.66 ± 0.075 | 4.82 ± 0.17 |  |  |
| QPKQLIVDDLKGSLKEDLTQHKFI [SPRY1] | 4.14 ± 0.13 | 4.2 ± 0.22 |  |  |
| QPRDEEEAELELLRQFDLAWQYGP [POLD4] | 4.87 ± 0.34 | 4.54 ± 0.27 |  |  |
| QPVDAIKLNLPDYHKIIKNPMDMG [BRD3] | 3.12 ± 0.35 | 2.92 ± 0.23 |  |  |
| QQKEEEEEMAVVPQGLFRGGKSGE [CHGA] | 5.52 ± 0.28 | 5.63 ± 0.12 |  |  |
| QRKLKPPIVPKIAGDGDTSNFETY [PRKX] | 4.38 ± 0.16 | 4.47 ± 0.12 |  |  |
| QSAYDVADMLKQYFRDLPEPLMTN [DLC1] | 2.67 ± 0.32 | 2.72 ± 0.33 |  |  |
| QSHDDLSNATATPSVRKKAGSFSR [C2CD2L] | 4.75 ± 0.31 | 4.67 ± 0.2 |  |  |
| QSLLGYTPEELHAMLDVKPDADE [ETS1] |  |  | 5.2 ± 0.36 | 5.18 ± 0.32 |
| QSRRTALATSPITVGDLGIVRRRS [YJU2B] | 4.27 ± 0.16 | 4.36 ± 0.25 |  |  |
| QSSCSGPTHTPRPADFSLGSLPGP [VENTX] | 3.83 ± 0.13 | 3.89 ± 0.36 |  |  |
| QTRNGLGKDHEILRRRIENGAKEL [FUT8] | 4.34 ± 0.33 | 4.33 ± 0.1 |  |  |
| QVDSLRPASFPTWGCDLGVVTRVV [BRF1] | 2.66 ± 0.11 | 2.5 ± 0.18 |  |  |
| QVLDEVIPIHGKGNFPTMEVKPKD [TENT5D] | 4.61 ± 0.18 | 4.6 ± 0.24 |  |  |
| QVQQVEVEATVKPELTAALRDIRA [PRPH] | 4.02 ± 0.31 | 4.32 ± 0.18 |  |  |
| QYLAERYKVNTPMLQSFINYCLLF [SLC35F2] | 2.58 ± 0.6 | 2.64 ± 0.53 |  |  |

From the supplement of paper PMC10567573
